Experimental data taken from patent publication US20170224780A1 (priority 2014, published 2017).

Tests used:
[1] = tested on: ovaries from 12-day-old neonatal mice; assay: In-vitro culture of whole ovaries incubated with cisplatin with or without AMH, follicle counting; assay type: cell-based; details: day 4 and day 7 in culture; results not shown
Experimental: Ovaries from 12-day-old neonatal mice were further incubated with a different chemotherapy agent-cisplatin, with or without AMH. Control ovaries were cultured with medium alone or with AMH. Ovaries were removed after day 4 and day 7 in culture and processed for histological analysis. The number of primordial and growing follicles was counted. Primordial follicle count in the presence of AMH and cisplatin is higher than in the presence of cisplatin alone (results not shown).

[2] = tested on: marmoset ovarian cortical tissues (grafts); assay: Xenotransplantation of frozen-thawed marmoset ovarian cortical strips into castrated SCID mice with rAMH treatment (OTCP-TP model); assay type: in vivo
From the text: Five healthy adult female marmoset monkeys (Callithrix jacchus) at the age range of 13 to 23 months were made available for ovaries excision. Fresh bovine ovaries were collected from lactating milking cows, ages 1.5-3 years (n=12). Ovarian human tissues were harvested from eight donors (age range 13-26 years).
Cortical tissue strips were obtained from marmoset (n=15), bovine (n=15) and human (n=46). The cortical tissue was obtained by removal of the underlying stromal tissue. Slow freezing cryopreservation was performed according to previously published protocols. Briefly, tissue fragments were equilibrated with 0.1M sucrose and 1.5M DMSO for 30 minutes following introduction into the cryopreservation device. A multi-gradient slow freezing protocol cooled the samples to −150° C. following by storage in liquid nitrogen (LN).
Prior to transplantation, tissues were thawed rapidly by equilibrating the samples in decreasing DMSO gradient solutions in 0.1M sucrose and cut into 2×3×2 mm pieces (Marmoset, n=29: n=15 for transplantation experiment and n=14 for transplantation+AMH experiment; Bovine, n=37; Human, n=46). Fresh thawed cortex from each experiment was embedded in […] and further studied.
Seven-weeks-old castrated male immunodeficient mice (n=60) were used as recipient animals. Mice were castrated at 4 weeks and maintained at 28° C. under controlled SPF conditions. Xenotransplantation experiments commenced at least 2-weeks post-orchidectomy.
Ovarian tissue transplantation surgical procedures were performed as described previously. Briefly, a longitudinal incision was made in the dorsum of the anesthetized recipient mouse, the skin was lifted and the ovarian cortical strips were inserted subcutaneously. Size of transplanted tissue from all species was 2×3×2 mm. Each graft was attached in place with a 6-0 non-absorbable prolene suture. Transplanted tissues were recovered after three (3) or seven (7) days.
In a separate experiment, frozen marmoset cortical tissues were thawed, 2×3×2 mm cortical strips were prepared (n=14) and transplanted into castrated SCID mice as described above. rAMH, diluted in PBS, was injected (10 μg in 200 μl, per mouse, i.p.) at the time of transplantation and once daily for 3 consecutive days at 10 μg per mouse, while control mice were injected with PBS. Daily injection protocol was determined according to preliminary experiments using labeled rAMH and rAMH dosage was initially determined according to previous studies.
As the first set of experiments indicated maximal follicle activation and PMF loss in all species (in the absence of AMH) at three days post transplantation, the animals were sacrificed three days post transplantation. The grafts were removed and processed for histological follicle counting analysis and immunohistochemistry.
Recovered grafts and control frozen thawed non transplanted samples were fixed in 4% paraformaldehyde, embedded in paraffin and serial 5 μm sections were prepared from the whole grafts for follicle counts and immunohistochemistry. Follicle classification as primordial or growing was performed on every sixth section of Hematoxylin and Eosin stained sections by two independent observers under a light-microscope (slides/graft: 8 for Marmoset, 9 for Bovine, 6 for Human). Only non-atretic follicles with clearly visible oocyte circled by granulosa-cell layers were referred to in results since no significant difference was found in the number of atretic follicles among the groups. […]

[3] = tested on: ovaries from 12-day-old neonatal mice; assay type: cell-based

B1: rAMH: Anti-mullerian hormone, protein designated by NCBI Accession No. P03971; recombinant AMH (rAMH) (protein, UniProt P03971 452-560, looked up)
Muellerian-inhibiting factor: SAGATAADGPCALRELSVDLRAERSVLIPETYQANNCQGVCGWPQSDRNPRYGNHVVLLLKMQVRGAALARPPCCVPTAYAGKLLISLSEERISAHHVPNMVATECGCR
primordial follicle count, AMH and cisplatin vs cisplatin alone [1]: higher
collagen levels (Sirius red staining) ([2]; grafts three days post transplantation, both transplanted groups had a marked increase vs untransplanted control): no effect
PMF (primordial follicle) count, mean follicle count per section±SE ([2]; marmoset grafts three days post transplantation, rAMH 10 μg per mouse i.p. at transplantation and once daily for 3 days, transplanted control 7.66±6.99, untransplanted control 148±37.06, p<0.001): 56.33±12.12
additionally saved PMF compared to transplanted control ([2]; marmoset grafts three days post transplantation, rAMH 10 μg per mouse i.p. daily): 86.40%
GF/PMF ratio (growing to primordial follicles) ([2]; transplanted + rAMH group compared to untransplanted control, ratio significantly increased in transplanted control, FIG. 4B): normalized
Ki-67 expressing proliferating cells (immunofluorescence, Z-stack reconstruction) ([2]; transplanted grafts with vs without rAMH administration): Major reduction
numbers of primordial follicles, PM together with AMH relative to PM alone [3]: significantly greater numbers
primordial or growing follicle numbers, AMH alone vs regular media alone [3]: No difference
ratio of growing to dormant follicles, PM+AMH vs PM alone [3]: significantly improved
